From patent publication US20220025010A1 (ANTAG THERAPEUTICS, published 2022)
Like-named read-outs stand apart in the source and are kept apart here. *1 amine or outer side, *2 acyl side, *3 side chain or, on linkers, in order; H or OH if unused. Where no end group is shown, it is not given here. Side-chain parts run from the residue outwards. [ ]: non-standard residue; d: D form. The star is where a group is joined. C18 diacid = O=C(O)CCCCCCCCCCCCCCCCC(=O)*; C16 diacid = O=C(O)CCCCCCCCCCCCCCC(=O)*; γGlu = O=C(O)[C@H](CCC(=O)[*:2])N[*:1]; pGlu = O=C1CC[C@@H](C(=O)O)N1; AEEA = NCCOCCOCC(=O)O

B1: AT257 (peptide)
peptide: GGTFISDYSIAMDRIK(C16 diacid)QQDFVNWLLAQR-OH
modifications: N-terminus assumed
SMILES: CC[C@H](C)[C@H](NC(=O)[C@H](CO)NC(=O)[C@H](Cc1ccc(O)cc1)NC(=O)[C@H](CC(=O)O)NC(=O)[C@H](CO)NC(=O)[C@@H](NC(=O)[C@H](Cc1ccccc1)NC(=O)[C@@H](NC(=O)CNC(=O)CN)[C@@H](C)O)[C@@H](C)CC)C(=O)N[C@@H](C)C(=O)N[C@@H](CCSC)C(=O)N[C@@H](CC(=O)O)C(=O)N[C@@H](CCCNC(=N)N)C(=O)N[C@H](C(=O)N[C@@H](CCCCNC(=O)CCCCCCCCCCCCCCC(=O)O)C(=O)N[C@@H](CCC(N)=O)C(=O)N[C@@H](CCC(N)=O)C(=O)N[C@@H](CC(=O)O)C(=O)N[C@@H](Cc1ccccc1)C(=O)N[C@H](C(=O)N[C@@H](CC(N)=O)C(=O)N[C@@H](Cc1c[nH]c2ccccc12)C(=O)N[C@@H](CC(C)C)C(=O)N[C@@H](CC(C)C)C(=O)N[C@@H](C)C(=O)N[C@@H](CCC(N)=O)C(=O)N[C@@H](CCCNC(=N)N)C(=O)O)C(C)C)[C@@H](C)CC
B2: AT392 (peptide)
peptide: SGTFISDYSIAMDRIK(C16 diacid)QQDFVNWLLAQR-NH2
modifications: N-terminus assumed
SMILES: CC[C@H](C)[C@H](NC(=O)[C@H](CO)NC(=O)[C@H](Cc1ccc(O)cc1)NC(=O)[C@H](CC(=O)O)NC(=O)[C@H](CO)NC(=O)[C@@H](NC(=O)[C@H](Cc1ccccc1)NC(=O)[C@@H](NC(=O)CNC(=O)[C@@H](N)CO)[C@@H](C)O)[C@@H](C)CC)C(=O)N[C@@H](C)C(=O)N[C@@H](CCSC)C(=O)N[C@@H](CC(=O)O)C(=O)N[C@@H](CCCNC(=N)N)C(=O)N[C@H](C(=O)N[C@@H](CCCCNC(=O)CCCCCCCCCCCCCCC(=O)O)C(=O)N[C@@H](CCC(N)=O)C(=O)N[C@@H](CCC(N)=O)C(=O)N[C@@H](CC(=O)O)C(=O)N[C@@H](Cc1ccccc1)C(=O)N[C@H](C(=O)N[C@@H](CC(N)=O)C(=O)N[C@@H](Cc1c[nH]c2ccccc12)C(=O)N[C@@H](CC(C)C)C(=O)N[C@@H](CC(C)C)C(=O)N[C@@H](C)C(=O)N[C@@H](CCC(N)=O)C(=O)N[C@@H](CCCNC(=N)N)C(N)=O)C(C)C)[C@@H](C)CC

Key:
Test in all cases: cell-based or functional assay
glucagon receptor = glucagon receptor (UniProt P47871 26-477, limits assumed)
Sequence of glucagon receptor (P47871 26-477 limits assumed): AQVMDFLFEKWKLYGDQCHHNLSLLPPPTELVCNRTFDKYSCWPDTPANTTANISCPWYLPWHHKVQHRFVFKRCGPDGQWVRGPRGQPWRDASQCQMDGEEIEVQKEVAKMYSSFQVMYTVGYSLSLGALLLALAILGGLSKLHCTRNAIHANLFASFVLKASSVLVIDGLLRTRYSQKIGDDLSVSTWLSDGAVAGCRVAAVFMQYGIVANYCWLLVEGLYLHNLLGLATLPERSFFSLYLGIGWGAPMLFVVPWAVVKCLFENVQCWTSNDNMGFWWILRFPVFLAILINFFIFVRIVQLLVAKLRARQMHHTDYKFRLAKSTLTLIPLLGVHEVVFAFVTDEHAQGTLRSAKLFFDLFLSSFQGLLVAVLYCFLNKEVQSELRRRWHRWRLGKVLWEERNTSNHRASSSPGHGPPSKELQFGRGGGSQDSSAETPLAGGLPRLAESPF

human GIP receptor [1] = target: T1, human GIP receptor (human, UniProt P48546 22-466)
T1 sequence (looked up): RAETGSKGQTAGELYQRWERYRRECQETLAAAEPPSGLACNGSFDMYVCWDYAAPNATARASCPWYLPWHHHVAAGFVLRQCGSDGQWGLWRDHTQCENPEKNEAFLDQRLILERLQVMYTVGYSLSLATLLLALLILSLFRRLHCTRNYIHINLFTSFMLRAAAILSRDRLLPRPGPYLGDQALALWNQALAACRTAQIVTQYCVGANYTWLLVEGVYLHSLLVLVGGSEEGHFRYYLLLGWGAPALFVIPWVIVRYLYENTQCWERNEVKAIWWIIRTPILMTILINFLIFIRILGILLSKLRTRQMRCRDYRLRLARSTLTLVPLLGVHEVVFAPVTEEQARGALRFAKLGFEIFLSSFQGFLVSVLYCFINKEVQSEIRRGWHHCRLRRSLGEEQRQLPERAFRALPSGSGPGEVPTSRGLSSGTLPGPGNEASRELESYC

GLP1 receptor = GLP1 receptor (UniProt P43220 24-463, limits assumed)
human GIP receptor [2] = target: T1, human GIP receptor; remark: listed apart in the source
human GIP receptor [3] = target: T1, human GIP receptor; remark: listed apart in the source

Row | Binder | cAMP antagonism % inhib (glucagon receptor) [%] | cAMP antagonism IC50 (glucagon receptor) [nM] | cAMP antagonism index (glucagon receptor) | CisBio cAMP antagonism % inhib (human GIP receptor [1]) [%] | CisBio cAMP antagonism IC50 (human GIP receptor [1]) [nM] | cAMP antagonism IC50 (human GIP receptor [1]) [nM] | cAMP antagonism % inhib (GLP1 receptor) [%] | cAMP antagonism IC50 (GLP1 receptor) [nM] | cAMP antagonism index (GLP1 receptor) | cAMP antagonism log IC50 (GLP1 receptor) [log M] | CisBio cAMP agonism % Efficacy (human GIP receptor [2]) [%] | CisBio cAMP antagonism % inhib (human GIP receptor [2]) [%] | CisBio cAMP antagonism IC50 (human GIP receptor [2]) [nM] | CisBio cAMP antagonism pIC50 (human GIP receptor [2]) | DiscoveRx cAMP agonism Emax (human GIP receptor [2]) | DiscoveRx cAMP antagonism IC50 (human GIP receptor [2]) [nM] | DiscoveRx cAMP antagonism log IC50 (human GIP receptor [2]) [log M] | cAMP antagonism IC50 (finer than Table 1B) (human GIP receptor [3]) [nM] | cAMP antagonism % inhib (human GIP receptor [1]) [%] | DiscoveRx cAMP antagonism % inhib (human GIP receptor [2]) [%]
1 | B1 | 100 | 15 | 1 | 80 | 136 | 21 | 55 | 5390 | 256 | -5.3 | 5 | 80 | 136 | 6.9 | 4 | 21 | -7.7 | – | – | –
2 | [pGlu]GTFISDYSIAMDRIK([AEEA-AEEA-AEEA-γGlu-C18 diacid])QQDFVNWLLAQR-NH2 [AT382] | – | – | – | 83 | 25.1 | 2 | – | – | – | – | 0 | 83 | 25.1 | 7.6 | – | 2 | -8.7 | 1.8 | 100 | 100
3 | B2 | – | – | – | 96 | 68.1 | 1 | – | – | – | – | – | – | – | 7.2 | – | – | -9.2 | 0.6 | 93 | –
